Results: US20220218790A1 (UNIVERSITY OF SHEFFIELD, published 2022)
One block for each binder: values may come before it.

Molecular target: T1, PTH receptor of the PTH responsive cell line UMR-106 (rat osteoblastic like cell line) (rat, UniProt P25961 27-591)
T1 sequence (looked up): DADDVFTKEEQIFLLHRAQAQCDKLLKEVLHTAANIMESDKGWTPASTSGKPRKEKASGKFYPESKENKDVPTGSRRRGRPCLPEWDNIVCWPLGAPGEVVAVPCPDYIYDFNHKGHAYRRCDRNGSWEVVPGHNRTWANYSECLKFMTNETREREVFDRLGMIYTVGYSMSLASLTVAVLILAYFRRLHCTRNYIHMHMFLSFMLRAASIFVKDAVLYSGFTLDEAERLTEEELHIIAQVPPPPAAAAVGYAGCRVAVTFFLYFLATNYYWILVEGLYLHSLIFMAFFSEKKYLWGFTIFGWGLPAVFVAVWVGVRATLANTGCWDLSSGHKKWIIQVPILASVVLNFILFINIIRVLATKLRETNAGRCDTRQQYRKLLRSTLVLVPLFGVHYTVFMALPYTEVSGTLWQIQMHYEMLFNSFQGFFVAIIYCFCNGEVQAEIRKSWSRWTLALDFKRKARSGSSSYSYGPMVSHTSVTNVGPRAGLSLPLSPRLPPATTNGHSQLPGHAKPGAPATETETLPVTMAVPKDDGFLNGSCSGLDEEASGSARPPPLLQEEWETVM
Assay: cell-based or functional assay

- Dual Luciferase Reporter Assay, fold increase of 14A2c over 14A3b at 100 nM: ~1.3 fold
- Dual Luciferase Reporter Assay, fold increase of 14A2c over 14A3b at 500 nM: ~1.6 fold
- EC50, Dual Luciferase Reporter Assay, UMR-106 cells: 579 nM
- fold increase in cAMP levels over 14A3b, UMR-106 cells, 500 nM: 11 fold
B1: 14A2c = PTHss-pp-PTH (1-34)-(g4s)4-PTHrExt-(g4s)4-GHbp (other)
chain: SVSEIQLMHNLGKHLNSMERVEWLRKKLQDVHNFGGGGSGGGGSGGGGSGGGGSDDVMTKEEQIFLLHRAQAQCEKRLKEVLQRPASIMESDKGWTSASTSGKPRKDKASGKLYPESEEDKEAPTGSRYRGRPCLPEWDHILCWPLGAPGEVVAVPCPDYIYDFNHKGHAYRRCDRNGSWELVPGHNRTWANYSECVKFLTNETREREVFDRLGGGGSGGGGSGGGGSGGGGSFSGSEATAAILSRAPWSLQSVNPGLKTNSSKEPKFTKCRSPERETFSCHWTDEVHHGTKNLGPIQLFYTRRNTQEWTQEWKECPDYVSAGENSCYFNSSFTSIAIPYCIKLTSNGGTVDEKCFSVDEIVQPDPPIALNWTLLNVSLTGIHADIQVRWEAPRNADIQKGWMVLEYELQYKEVNETKWKMMDPILTTSVPVYSLKVDKEYEVRVRSKQRNSGNYGEFSEVLYVTLPQMSQ

- EC50, Dual Luciferase Reporter Assay, UMR-106 cells: 896 nM
B2: 14A3b = GHss-PTH (1-34)-(g4s)4-PTHrExt-(g4s)4-GHbp (other)
chain: B1 chain

- EC50, Dual Luciferase Reporter Assay, UMR-106 cells: 153 nM
- fold by which PTH is more potent than this fusion (EC50, Dual Luciferase Reporter Assay): 4.7 fold
B3: 14A7 = PTHss-pp-PTH(1-34)-(g4s)4-GHbp (other)
chain: SVSEIQLMHNLGKHLNSMERVEWLRKKLQDVHNFGGGGSGGGGSGGGGSGGGGSFSGSEATAAILSRAPWSLQSVNPGLKTNSSKEPKFTKCRSPERETFSCHWTDEVHHGTKNLGPIQLFYTRRNTQEWTQEWKECPDYVSAGENSCYFNSSFTSIAIPYCIKLTSNGGTVDEKCFSVDEIVQPDPPIALNWTLLNVSLTGIHADIQVRWEAPRNADIQKGWMVLEYELQYKEVNETKWKMMDPILTTSVPVYSLKVDKEYEVRVRSKQRNSGNYGEFSEVLYVTLPQMSQ
